In US20240254239A1 (LAEKNA THERAPEUTICS SHANGHAI, published 2024):

B1: α-GPC3 1 mIgG2a S239D/1332E (antibody, V domains shown)
VH: QVQLQQSGAELVRPGASVKLSCKASGYTFTDYEMHWVKQTPVHGLKWIGALDPKTGDTAYSQKFKGKATLTADKSSSTAYMELRSLTSEDSAVYYCTRFYSYTYWGQGTLVTVSA
VL: DVVMTQTPLSLPVSLGDQASISCRSSQSLVHSNGNTYLHWYLQKPGQSPKLLIYKVSNRFSGVPDRFSGSGSGTDFTLKISRVEAEDLGVYFCSQNTHVPPTFGSGTKLEIKR
notes: mIgG2a with S239D/I332E; also called α-GPC3 1 mIgG2a S239D/I332E; exemplary anti-GPC3 antibody (α-GPC3 1)
B2: α-PDGFRb 1 S239D/1332E (antibody, human IgG1, kappa, V domains shown)
VH: QVQLQESGPGLVKPSETLSLTCTVSGFSLTNYAINWVRQPPGKGLEWLGIIWTGGGTSYNSALKSRLTISKDTSKNQVSLKLSSVTAADTAVYYCARTGTRGYFFDYWGQGTLVTVSS
VL: DIQMTQSPSSLSASVGDRVTITCHASQNINVWLSWYQQKPGKAPKLLIYKASNLHTGVPSRFSGSGSGTGFTLTISSLQPEDIATYYCQQGQSFPFTFGGGTKVEIKR
notes: also called α-PDGFRb 1 S239D/I332E; exemplary anti-PDGFRb antibody (α-PDGFRb 1)
B3: α-PDGFRb 1-NKG2D KIH S239D/1332E (bispecific antibody, human IgG1, kappa)
heavy: QVQLQESGPGLVKPSETLSLTCTVSGFSLTNYAINWVRQPPGKGLEWLGIIWTGGGTSYNSALKSRLTISKDTSKNQVSLKLSSVTAADTAVYYCARTGTRGYFFDYWGQGTLVTVSSASTKGPSVFPLAPSSKSTSGGTAALGCLVKDYFPEPVTVSWNSGALTSGVHTFPAVLQSSGLYSLSSVVTVPSSSLGTQTYICNVNHKPSNTKVDKKVEPKSCDKTHTCPPCPAPELLGGPDVFLFPPKPKDTLMISRTPEVTCVVVDVSHEDPEVKFNWYVDGVEVHNAKTKPREEQYNSTYRVVSVLTVLHQDWLNGKEYKCKVSNKALPAPEEKTISKAKGQPREPQVCTLPPSREEMTKNQVSLSCAVKGFYPSDIAVEWESNGQPENNYKTTPPVLDSDGSFFLVSKLTVDKSRWQQGNVFSCSVMHEALHNHYTQKSLSLSPGK
chain: FLNSLFNQEVQIPLTESYCGPCPKNWICYKNNCYQFFDESKNWYESQASCMSQNASLLKVYSKEDQDLLKLVKSYHWMGLVHIPTNGSWQWEDGSILSPNLLTIIEMQKGDCALYASSFKGYIENCSTPNTYICMQRTVGGSGGGSGFLNSLFNQEVQIPLTESYCGPCPKNWICYKNNCYQFFDESKNWYESQASCMSQNASLLKVYSKEDQDLLKLVKSYHWMGLVHIPTNGSWQWEDGSILSPNLLTIIEMQKGDCALYASSFKGYIENCSTPNTYICMQRTVGGGGSGGGGSGGGGSGGGGSPKSSDKTHTCPPCPAPELLGGPDVFLFPPKPKDTLMISRTPEVTCVVVDVSHEDPEVKFNWYVDGVEVHNAKTKPREEQYNSTYRVVSVLTVLHQDWLNGKEYKCKVSNKALPAPEEKTISKAKGQPREPQVYTLPPCRDELTKNQVSLWCLVKGFYPSDIAVEWESNGQPENNYKTTPPVLDSDGSFFLYSKLTVDKSRWQQGNVFSCSVMHEALHNHYTQKSLSLSPGK
light: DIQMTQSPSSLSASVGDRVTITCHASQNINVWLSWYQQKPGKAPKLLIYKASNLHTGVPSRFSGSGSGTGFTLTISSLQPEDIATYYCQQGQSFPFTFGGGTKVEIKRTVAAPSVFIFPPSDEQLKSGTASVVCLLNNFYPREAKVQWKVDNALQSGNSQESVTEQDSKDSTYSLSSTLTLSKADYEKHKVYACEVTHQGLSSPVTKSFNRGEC
notes: The Fc carries S239D/I332E; also called α-PDGFRb 1-NKG2D KIH S239D/I332E; knob-into-hole bispecific antibody

Experiments:
human GPC3 ECD = biological target: T1, human GPC3 ECD (human, UniProt P51654 25-559, limits assumed); experiment: direct ELISA on coated recombinant ECD (30 ng/well), HRP-conjugated secondary antibody, luminescence
T1 construct: extracellular domain; also called recombinant extracellular domain of GPC3
Description: (§1) Briefly, recombinant extracellular domain of PDGFRb, FAPα, ULBP1, uPAR, IGF1R, SIRPA, PD-L1, ANTXR1, CD248, or GPC3 (30 ng/well) was coated on white optiplate™-384 well HB plate. After overnight coating, standard direct ELISA assay was performed. Luminescence signal was detected after using secondary antibody with HRP conjugated. Binding activity of each antibody was determined based on dose dependent binding curve.

Human PDGFRb ECD [1] = biological target: T2, Human PDGFRb ECD (human, UniProt P09619 33-532); experiment: ELISA on human PDGFRb ECD, luminescence
T2 construct: extracellular domain; also called recombinant extracellular domain of PDGFRb

Human PDGFRb ECD [2] = biological target: T2, Human PDGFRb ECD; experiment: direct ELISA on coated recombinant ECD (30 ng/well), HRP-conjugated secondary antibody, luminescence
Description: as §1

human MICA ECD = biological target: T3, human MICA ECD (human, UniProt Q29983 24-307); experiment: ELISA on human MICA ECD, luminescence
T3 construct: extracellular domain
T3 sequence (looked up): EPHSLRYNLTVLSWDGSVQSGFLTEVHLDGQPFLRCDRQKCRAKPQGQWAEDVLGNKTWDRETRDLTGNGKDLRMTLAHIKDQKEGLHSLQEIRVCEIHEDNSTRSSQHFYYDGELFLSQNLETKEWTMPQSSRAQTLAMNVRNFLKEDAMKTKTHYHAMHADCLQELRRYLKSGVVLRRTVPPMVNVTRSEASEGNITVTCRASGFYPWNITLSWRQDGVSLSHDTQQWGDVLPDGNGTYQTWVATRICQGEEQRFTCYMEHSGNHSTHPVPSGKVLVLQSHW

T2 sequence (P09619 33-532): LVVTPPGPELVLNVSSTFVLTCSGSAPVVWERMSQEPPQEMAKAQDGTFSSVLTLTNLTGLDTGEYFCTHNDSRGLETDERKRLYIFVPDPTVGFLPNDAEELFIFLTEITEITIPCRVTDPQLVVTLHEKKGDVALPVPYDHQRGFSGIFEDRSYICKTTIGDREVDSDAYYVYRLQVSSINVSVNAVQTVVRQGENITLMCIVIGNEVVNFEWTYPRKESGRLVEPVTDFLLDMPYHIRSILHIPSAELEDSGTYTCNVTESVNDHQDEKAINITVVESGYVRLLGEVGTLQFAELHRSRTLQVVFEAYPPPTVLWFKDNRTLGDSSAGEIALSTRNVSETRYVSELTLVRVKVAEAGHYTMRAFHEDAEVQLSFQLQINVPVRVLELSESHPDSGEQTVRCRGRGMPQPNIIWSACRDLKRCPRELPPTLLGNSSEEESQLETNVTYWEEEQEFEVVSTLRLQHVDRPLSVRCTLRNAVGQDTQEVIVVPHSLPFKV
T1 sequence (P51654 25-559 limits assumed): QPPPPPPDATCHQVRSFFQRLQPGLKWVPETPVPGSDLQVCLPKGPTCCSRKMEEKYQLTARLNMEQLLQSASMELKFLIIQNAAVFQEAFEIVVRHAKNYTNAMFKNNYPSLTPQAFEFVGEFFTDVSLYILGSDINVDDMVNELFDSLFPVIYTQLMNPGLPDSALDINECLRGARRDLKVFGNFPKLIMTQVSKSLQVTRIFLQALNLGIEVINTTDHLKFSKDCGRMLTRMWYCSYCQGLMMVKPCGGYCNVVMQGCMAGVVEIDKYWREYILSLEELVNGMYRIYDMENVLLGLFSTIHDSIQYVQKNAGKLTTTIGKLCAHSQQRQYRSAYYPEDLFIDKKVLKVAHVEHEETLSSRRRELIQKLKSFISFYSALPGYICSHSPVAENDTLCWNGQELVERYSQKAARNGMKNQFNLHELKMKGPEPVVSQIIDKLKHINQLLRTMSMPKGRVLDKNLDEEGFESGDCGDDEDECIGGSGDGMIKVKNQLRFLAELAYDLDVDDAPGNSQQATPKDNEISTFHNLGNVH

| EC50 (read off the curve) (human GPC3 ECD) | EC50 (read off the curve) (Human PDGFRb ECD [1]) | EC50 (read off the curve) (Human PDGFRb ECD [2]) | binding result (human MICA ECD) | Binder |
| --- | --- | --- | --- | --- |
| ~0.02 µg/mL |  |  |  | B1 |
|  | ~0.02 µg/mL | ~0.03 µg/mL |  | B2 |
|  | ~0.02 µg/mL |  | binds | B3 |
